{"source": "IntAct's records for PubMed 22820947", "parents": {"B1": {"name": "ATP-dependent helicase SGS1 (Saccharomyces cerevisiae), P35187 (parent)", "chain": "MVTKPSHNLRREHKWLKETATLQEDKDFVFQAIQKHIANKRPKTNSPPTTPSKDECGPGTTNFITSIPASGPTNTATKQHEVMQTLSNDTEWLSYTATSNQYADVPMVDIPASTSVVSNPRTPNGSKTHNFNTFRPHMASSLVENDSSRNLGSRNNNKSVIDNSSIGKQLENDIKLEVIRLQGSLIMALKEQSKLLLQKCSIIESTSLSEDAKRLQLSRDIRPQLSNMSIRIDSLEKEIIKAKKDGMSKDQSKGRSQVSSQDDNIISSILPSPLEYNTSSRNSNLTSTTATTVTKALAITGAKQNITNNTGKNSNNDSNNDDLIQVLDDEDDIDCDPPVILKEGAPHSPAFPHLHMTSEEQDELTRRRNMRSREPVNYRIPDRDDPFDYVMGKSLRDDYPDVEREEDELTMEAEDDAHSSYMTTRDEEKEENELLNQSDFDFVVNDDLDPTQDTDYHDNMDVSANIQESSQEGDTRSTITLSQNKNVQVILSSPTAQSVPSNGQNQIGVEHIDLLEDDLEKDAILDDSMSFSFGRQHMPMSHSDLELIDSEKENEDFEEDNNNNGIEYLSDSDLERFDEERENRTQVADIQELDNDLKIITERKLTGDNEHPPPSWSPKIKREKSSVSQKDEEDDFDDDFSLSDIVSKSNLSSKTNGPTYPWSDEVLYRLHEVFKLPGFRPNQLEAVNATLQGKDVFVLMPTGGGKSLCYQLPAVVKSGKTHGTTIVISPLISLMQDQVEHLLNKNIKASMFSSRGTAEQRRQTFNLFINGLLDLVYISPEMISASEQCKRAISRLYADGKLARIVVDEAHCVSNWGHDFRPDYKELKFFKREYPDIPMIALTATASEQVRMDIIHNLELKEPVFLKQSFNRTNLYYEVNKKTKNTIFEICDAVKSRFKNQTGIIYCHSKKSCEQTSAQMQRNGIKCAYYHAGMEPDERLSVQKAWQADEIQVICATVAFGMGIDKPDVRFVYHFTVPRTLEGYYQETGRAGRDGNYSYCITYFSFRDIRTMQTMIQKDKNLDRENKEKHLNKLQQVMAYCDNVTDCRRKLVLSYFNEDFDSKLCHKNCDNCRNSANVINEERDVTEPAKKIVKLVESIQNERVTIIYCQDVFKGSRSSKIVQANHDTLEEHGIGKSMQKSEIERIFFHLITIRVLQEYSIMNNSGFASSYVKVGPNAKKLLTGKMEIKMQFTISAPNSRPSTSSSFQANEDNIPVIAQKSTTIGGNVAANPPRFISAKEHLRSYTYGGSTMGSSHPITLKNTSDLRSTQELNNLRMTYERLRELSLNLGNRMVPPVGNFMPDSILKKMAAILPMNDSAFATLGTVEDKYRRRFKYFKATIADLSKKRSSEDHEKYDTILNDEFVNRAAASSNGIAQSTGTKSKFFGANLNEAKENEQIINQIRQSQLPKNTTSSKSGTRSISKSSKKSANGRRGFRNYRGHYRGRK"}}, "data": [{"variants_of": "B1", "conditions": "with rad53_yeast RAD53, P22216", "values": [{"variant": "T451A", "effect of a mutation on the interaction": "decreasing interaction"}, {"variant": "S470A", "effect of a mutation on the interaction": "decreasing interaction"}, {"variant": "S482A", "effect of a mutation on the interaction": "decreasing interaction"}, {"variant": "T585A", "effect of a mutation on the interaction": "decreasing interaction"}]}]}
